Consider six molecules from patent US20110038869A1 (Genmab, published 2011).

Assay [1] deals with T1, CD32bECDHis (human, UniProt P31994 43-223, limits assumed).
T1 construct: Produced in HEK-293F cells; also called extracellular domain of CD32b with C-terminal His tag; soluble CD32b
T1 sequence (looked up): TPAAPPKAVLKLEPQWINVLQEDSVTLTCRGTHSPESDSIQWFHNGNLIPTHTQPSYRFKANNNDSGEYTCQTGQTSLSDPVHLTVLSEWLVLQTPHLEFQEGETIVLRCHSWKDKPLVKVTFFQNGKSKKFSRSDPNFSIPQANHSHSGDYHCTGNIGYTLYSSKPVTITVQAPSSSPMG
The experiment in a line: SPR BIAcore 3000, antibody immobilized, CD32bECDHis analyte. As to the method:
Antibody binding to CD32a and CD32b was analyzed by surface plasmon resonance in a BIAcore 3000 (GE Healthcare). CD32aECDHis and CD32bECDHis derived from HEK293 cells were used for the analysis. HuMab antibodies were immobilized on the CM-5 sensor chip according to the procedure recommended by the manufacturer. Briefly, after surface activation by EDC and NHS HuMab antibody was injected over the activated CM-5 surface in 10 mM sodium-acetate, pH ranging from 4.0 to 5.5 at 5 μl/min. followed by 1 M Ethanolamine for deactivation. Concentration series of CD32bECDHis in HBS-EP buffer were injected over the immobilized antibodies at a flow rate of 30 μl/min for 180 sec. Regeneration of the HuMab surface was performed by injection of 10 mM Glycine-HCl pH 2.0 or 10 mM sodium acetate pH 3.0. […] Kinetic analysis is performed using double reference subtraction and model 1:1 (langmuir) binding analysis. Specificity was studied by injecting CD32aECDHis at a concentration of […] over immobilized HuMab and isotype control antibodies under the same conditions as for the CD32b measurements.
A general note: In SPR one partner is held on a chip, and binding of the other changes the refractive index at the surface.

The target in assay [2] is T1, CD32bECDHis. The experiment in a line: ELISA on coated CD32bECDHis. The procedure:
The specificity of the obtained anti-CD32b HuMabs was evaluated by ELISA. ELISA plates (Microlon; Greiner Bio-One) were coated overnight at 4° C. with 2 μg/ml of CD32aECDHis and CD32bECDHis in PBS, pH 7.4. Coated ELISA plates were washed with PBS, blocked for one hour at room temperature with 2% (v/v) chicken serum (Gibco, Paisley, Scotland) in PBS and washed again with PBS. Subsequently, HuMabs, serially diluted in PBSTC (PBS supplemented with 2% (v/v) chicken serum and 0.05% (v/v) Tween-20), were incubated for 1 hr at RT under shaking conditions (300 rpm). Bound HuMabs were detected using HRP-conjugated goat-anti-human IgG antibodies (Jackson ImmunoResearch Europe) diluted 1:10,000 in PBSTC, which were incubated for 1 hr at RT under shaking conditions (300 rpm). […] Binding curves were analyzed using non-linear regression (sigmoidal dose-response with variable slope) using GraphPad Prism V4.03 software.
(An ELISA detects its analyte on a solid surface through an enzyme-linked reagent.)

Assay [3] concerns the target T2, biotinylated CD32bECDHis (human, UniProt P31994 43-223, limits assumed, biotinylated (sites not given)).
T2 sequence (looked up): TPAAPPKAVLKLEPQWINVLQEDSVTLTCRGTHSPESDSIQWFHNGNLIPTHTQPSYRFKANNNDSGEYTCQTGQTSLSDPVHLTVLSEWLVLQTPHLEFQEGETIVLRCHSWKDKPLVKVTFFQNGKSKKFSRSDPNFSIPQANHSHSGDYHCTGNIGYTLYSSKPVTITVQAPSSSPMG
Briefly: competition ELISA, competitor 026. The procedure: (§1) ELISA wells were coated overnight at 4° C. with anti-CD32b HuMabs serially diluted in PBS. The ELISA wells were washed with PBS, blocked for one hour at room temperature with 2% (v/v) chicken serum (Gibco, Paisley, Scotland) in PBS and washed again with PBS. Subsequently, the immobilized antibodies were incubated with biotinylated CD32bECDHis serially diluted in PBSTC. After washing with PBS/Tween, bound biotinylated CD32bECDHis was incubated with Streptavidin-poly-HRP (Sanquin, Amsterdam, The Netherlands) for 1 hr at RT an the reaction was developed as described supra.
(§2) To this end, ELISA wells coated with anti-CD32b HuMabs were incubated in the presence of an excess of CD32b-specific antibody and the predetermined concentration of biotinylated CD32bECDHis in fluid phase. The reaction was developed as described.

In assay [4] the target is T2, biotinylated CD32bECDHis. Briefly: competition ELISA, competitor 016. As to the method:
as §1, §2

For assay [5], the target named is T2, biotinylated CD32bECDHis. Briefly: competition ELISA, competitor 063. As to the method: as §1, §2
Assay [6] deals with T2, biotinylated CD32bECDHis. The experiment in a line: competition ELISA, competitor 034. The procedure: as §1, §2
Assay [7] concerns the target T2, biotinylated CD32bECDHis. The experiment in a line: competition ELISA, competitor 024. The procedure:
as §1, §2

The target in assay [8] is T2, biotinylated CD32bECDHis. The experiment in a line: competition ELISA, competitor 2B6. The procedure: as §1, §2
For assay [9], the target named is T2, biotinylated CD32bECDHis. Briefly: competition ELISA, competitor 028. As to the method: as §1, §2

B1: Antibody 024 (antibody, V domains shown)
VH: QVQLVQSGAEVKKPGASVKVSCKASGYTFTSYGLSWVRQAPGQGLEWMGWISPYNGNTHYAQKLQGRVTMTTDTSTSTAYMDLRSLRSDDTAVYYCARDSAAHGMDVWGQGTTVTVSS
VL: DIQMTQSPSSLSASVGDRVTITCRASQGISSWLAWYQQKPEKAPKSLIYAASSLQSGVPSRFSGSRSGTDFTLTISSLQPEDFATYYCQQYNSYPYTFGQGTKLEIKR
notes: also called HuMab 024
B1: in the assay with CD32bECDHis [1], the Kd (usually the free concentration of one partner at which half of the binding sites on the other are occupied at equilibrium, for simple one-to-one binding) is 0.9 nM. Further, the koff (in general, the rate constant with which the complex falls apart) with CD32bECDHis [1] was 0.00126 s⁻¹. The kon – broadly, the rate constant with which the complex forms – with CD32bECDHis [1] came out at 1.44e+06 M⁻¹ s⁻¹. In the assay with CD32bECDHis [2], a half-maximal effect (EC50) was put at 0.75 nM. The “% residual binding” value came out at 56% with biotinylated CD32bECDHis [3]; 101% with biotinylated CD32bECDHis [4]; 68% with biotinylated CD32bECDHis [5]; 6% with biotinylated CD32bECDHis [6]; 15% with biotinylated CD32bECDHis [7]; 98% with biotinylated CD32bECDHis [8]. In the assay with biotinylated CD32bECDHis [9], the “% residual binding” value came to 34%.

B2: Antibody 020 (antibody, V domains shown)
VH: QVQLVQSGGEVKKPGASVKVSCKTSGYTFTSYGISWVRQAPGQGLEWMGWISAYNGNTKYAQKLQGRLTMTTDTSTTTAYMELRSLRSDDTAVYYCARDSAAHGMDVWGQGTTVTVSS
VL: DIQMTQSPSSLSASVGDRVTITCRASQGISSWLAWYQQKPEKAPKSLIYAASSLQSGVPSRFRGSGSGTDFTLTISSLQPEDFATYYCQQYNSYPYTFGQGTKLEIKR
notes: also called HuMab 020
As to B2, the Kd with CD32bECDHis [1] is 2.4 nM. In the assay with CD32bECDHis [1], this molecule registered a koff of 0.00363 s⁻¹. Further, the kon in the assay with CD32bECDHis [1] is 1.54e+06 M⁻¹ s⁻¹. The EC50 – broadly, the concentration giving half of the maximal effect – in the assay with CD32bECDHis [2] is 0.49 nM. Besides, the “% residual binding” value came to 28% with biotinylated CD32bECDHis [3]; 105% in the assay with biotinylated CD32bECDHis [4]; 42% with biotinylated CD32bECDHis [5]; 1% in the assay with biotinylated CD32bECDHis [6]; 4% with biotinylated CD32bECDHis [7]; 126% with biotinylated CD32bECDHis [8]. Further, the “% residual binding” value in the assay with biotinylated CD32bECDHis [9] worked out at 13%.

B3: Antibody 022 (antibody, V domains shown)
VH: QVQLVQSGAEVKKPGASVKVSCKASGYTFTSYGLSWVRQAPGQGLEWMGWISPYNGNTHYAQKLQGRVTMTTDTSTSTADMDLRSLRSDDTAVYYCARASAAHGMDVWGQGTTVTVSS
VL: DIQMTQSPSSLSASVGDRVTITCRASQGISSWLAWYQQKPEKAPKSLIYAASSLQSGVPSRFSGSRSGTDFTLTISSLQPEDFATYYCQQYNSYPYTFGQGTKLEIKR
notes: also called HuMab 022
Consider B3, for which the Kd with CD32bECDHis [1] turned out to be 0.7 nM. The koff with CD32bECDHis [1] worked out at 0.00103 s⁻¹. For the same molecule, the kon in the assay with CD32bECDHis [1] came to 1.48e+06 M⁻¹ s⁻¹. The same molecule gave an EC50 with CD32bECDHis [2] of 0.75 nM. The “% residual binding” value was 42% in the assay with biotinylated CD32bECDHis [3]; 102% in the assay with biotinylated CD32bECDHis [4]; 63% with biotinylated CD32bECDHis [5]; 7% with biotinylated CD32bECDHis [6]; 13% in the assay with biotinylated CD32bECDHis [7]; 96% in the assay with biotinylated CD32bECDHis [8]. Further, the “% residual binding” value with biotinylated CD32bECDHis [9] worked out at 27%.

B4: Antibody 028 (antibody, V domains shown)
VH: QVQVVQSGAEVKKPGASVKVSCKTSGYTFTSYGISWVRQAPGQGLEWMGWISAYNGNTKYAQKLQGRLTMTTDTSTTTAYMELRSLRSDDTAVYYCARDSAAHGMDVWGQGTTVSVSS
VL: DIQMTQSPSSLSASVGDRVTITCRASQGISSWLAWYQQKPEKAPKSLIYAASSLQSGVPSRFSGSRSGTDFTLTISSLQPEDFATYYCQQYNSYPYTFGQGTKLEIKR
notes: List 1 gives no VL for antibody 028; The VL is therefore uncertain; also called HuMab 028
The molecule B4 returned a Kd in the assay with CD32bECDHis [1] of 1.3 nM. Moreover, the koff with CD32bECDHis [1] was 0.00199 s⁻¹. In the assay with CD32bECDHis [1], this molecule displayed a kon of 1.58e+06 M⁻¹ s⁻¹. In the assay with CD32bECDHis [2], this molecule displayed an EC50 of 0.48 nM. Besides, the “% residual binding” value was 32% with biotinylated CD32bECDHis [3]; 109% with biotinylated CD32bECDHis [4]; 45% with biotinylated CD32bECDHis [5]; 2% with biotinylated CD32bECDHis [6]; 7% with biotinylated CD32bECDHis [7]; 125% with biotinylated CD32bECDHis [8]. In addition, in the assay with biotinylated CD32bECDHis [9], the “% residual binding” value was found to be 15%.

B5: Antibody 026 (antibody, V domains shown)
VH: QVQLVQSGAEVKKPGASVKVSCKASGYTFTSYGLSWVRQAPGQGLEWMGWISAYNGNTNYAQKLQGRVTMTTDTSTSTAYMDLRSLRSDDTAVYYCARDSAAHGMDVWGQGTTVTVSS
VL: DIQMTQSPSSLSASVGDRVTITCRASQGISSWLAWYQQKPEKAPKSLIYAASSLQSGVPSRFSGSRSGTDFTLTISSLQPEDFATYYCQQYNSYPYTFGQGTKLEIKR
notes: Human antibody; also called HuMab 026
Consider B5, for which binding in the assay with CD32bECDHis [1] was put at a Kd of 1.3 nM. This molecule showed a koff with CD32bECDHis [1] of 0.00179 s⁻¹. The same molecule showed a kon in the assay with CD32bECDHis [1] of 1.4e+06 M⁻¹ s⁻¹. The molecule further gave an EC50 with CD32bECDHis [2] of 0.51 nM. The “% residual binding” value with biotinylated CD32bECDHis [3] is 4%; with biotinylated CD32bECDHis [4], 104%; with biotinylated CD32bECDHis [5] it was 27%; in the assay with biotinylated CD32bECDHis [6], 0%; in the assay with biotinylated CD32bECDHis [7], 1%; with biotinylated CD32bECDHis [8], 146%. In addition, the “% residual binding” value with biotinylated CD32bECDHis [9] was found to be 3%.

B6: Antibody 038 (antibody, human IgG1, V domains shown)
VH: QVQLVESGGGVVQPGRSLRLSCAASGFTFSTYGMHWVRQAPGKGLEWVAVISHDGSDKYYADSVKGRFTISRDNSKNTLYLQMNSLRAEDTAVYYCARDQSIIETFDYWGQGTLVTVSS
VL: EIVLTQSPATLSLSPGERATLSCRASQSVSSYLAWYQQKPGQAPRLLIYDASNRATGIPARFSGSGSGTDFTLTISSLEPEDFAVYYCQQRSNWGFTFGPGTKVDIKR
notes: Human antibody; also called HuMab 038
Molecule B6 yielded a Kd in the assay with CD32bECDHis [1] of 1 nM. Moreover, the koff with CD32bECDHis [1] worked out at 0.00156 s⁻¹. Besides, in the assay with CD32bECDHis [1], the association rate constant (kon) was 1.54e+06 M⁻¹ s⁻¹. The molecule also had an EC50 with CD32bECDHis [2] of 0.62 nM. In addition, the “% residual binding” value was determined as 308% with biotinylated CD32bECDHis [3]; 105% with biotinylated CD32bECDHis [4]; 283% in the assay with biotinylated CD32bECDHis [5]; 354% with biotinylated CD32bECDHis [6]; 351% in the assay with biotinylated CD32bECDHis [7]; 5% in the assay with biotinylated CD32bECDHis [8]. For the same molecule, the “% residual binding” value in the assay with biotinylated CD32bECDHis [9] turned out to be 317%.
